Laboratory results published in patent publication US20220010021A1 (Sanofi, published 2022).

Target: cell surface receptor composed of FGFR1c and co-receptor beta-Klotho (KLB) (human, UniProt P11362 22-822; Q86Z14 1-1044)
Assay: cell-based or functional assay
For Mean E max, Luciferase reporter gene assay in this document: reference of the scale not given here.

Sequence of cell surface receptor composed of FGFR1c and co-receptor beta-Klotho (KLB) (P11362 22-822, chain 1 of 2): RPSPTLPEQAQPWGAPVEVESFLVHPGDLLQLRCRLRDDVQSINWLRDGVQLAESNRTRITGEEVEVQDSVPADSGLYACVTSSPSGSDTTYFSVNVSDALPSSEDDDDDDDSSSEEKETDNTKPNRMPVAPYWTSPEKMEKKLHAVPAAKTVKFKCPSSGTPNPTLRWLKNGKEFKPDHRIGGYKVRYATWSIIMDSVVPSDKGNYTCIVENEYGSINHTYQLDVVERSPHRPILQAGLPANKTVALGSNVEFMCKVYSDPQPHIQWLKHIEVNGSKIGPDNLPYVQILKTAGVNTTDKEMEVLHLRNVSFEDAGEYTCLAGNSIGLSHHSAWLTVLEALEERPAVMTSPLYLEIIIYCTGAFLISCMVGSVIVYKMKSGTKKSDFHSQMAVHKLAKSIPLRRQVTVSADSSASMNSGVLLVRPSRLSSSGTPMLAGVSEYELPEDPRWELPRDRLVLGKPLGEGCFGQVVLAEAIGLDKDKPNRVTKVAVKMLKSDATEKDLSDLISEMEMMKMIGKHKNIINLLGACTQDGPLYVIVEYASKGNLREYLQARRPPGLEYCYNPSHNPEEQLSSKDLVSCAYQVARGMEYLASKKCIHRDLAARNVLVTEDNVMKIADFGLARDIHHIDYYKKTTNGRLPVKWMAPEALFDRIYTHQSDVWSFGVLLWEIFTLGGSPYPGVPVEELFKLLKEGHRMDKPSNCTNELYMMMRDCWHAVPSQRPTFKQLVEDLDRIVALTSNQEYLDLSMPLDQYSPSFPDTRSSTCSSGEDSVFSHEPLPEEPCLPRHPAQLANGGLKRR
Sequence of cell surface receptor composed of FGFR1c and co-receptor beta-Klotho (KLB) (Q86Z14 whole entry, chain 2 of 2): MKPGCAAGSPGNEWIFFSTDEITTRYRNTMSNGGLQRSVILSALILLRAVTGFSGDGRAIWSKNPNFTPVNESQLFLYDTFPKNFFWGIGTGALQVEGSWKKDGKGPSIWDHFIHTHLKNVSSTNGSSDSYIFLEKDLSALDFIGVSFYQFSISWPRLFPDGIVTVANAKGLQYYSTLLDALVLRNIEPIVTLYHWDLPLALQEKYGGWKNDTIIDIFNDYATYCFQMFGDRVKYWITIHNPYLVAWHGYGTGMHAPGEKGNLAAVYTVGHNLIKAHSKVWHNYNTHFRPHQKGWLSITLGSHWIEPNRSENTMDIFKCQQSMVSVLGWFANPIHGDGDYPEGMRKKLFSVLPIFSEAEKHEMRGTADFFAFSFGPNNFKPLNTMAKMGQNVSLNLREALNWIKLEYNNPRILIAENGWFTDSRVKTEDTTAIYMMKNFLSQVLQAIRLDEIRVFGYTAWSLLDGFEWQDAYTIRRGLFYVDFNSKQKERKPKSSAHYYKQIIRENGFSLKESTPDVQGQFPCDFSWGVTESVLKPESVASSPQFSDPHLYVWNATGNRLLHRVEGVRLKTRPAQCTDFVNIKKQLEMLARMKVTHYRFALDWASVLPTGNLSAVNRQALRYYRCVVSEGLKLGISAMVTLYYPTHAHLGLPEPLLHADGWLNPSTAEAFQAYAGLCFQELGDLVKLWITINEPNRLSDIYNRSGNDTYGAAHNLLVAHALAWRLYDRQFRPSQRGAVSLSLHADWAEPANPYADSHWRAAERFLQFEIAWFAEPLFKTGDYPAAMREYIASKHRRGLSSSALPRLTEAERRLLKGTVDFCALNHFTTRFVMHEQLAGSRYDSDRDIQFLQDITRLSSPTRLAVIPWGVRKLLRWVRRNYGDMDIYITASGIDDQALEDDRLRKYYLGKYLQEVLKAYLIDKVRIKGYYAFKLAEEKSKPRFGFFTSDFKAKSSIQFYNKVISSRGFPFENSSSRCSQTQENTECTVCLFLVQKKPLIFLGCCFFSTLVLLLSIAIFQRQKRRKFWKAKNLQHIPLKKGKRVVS

B1: 16H7 light chain variant D49C (antibody, IgG4, V domains shown)
VH: not shown
VL: SYVLTQPPSVSVAPGQTARITCGGNNIGSESVHWYQQKPGQAPVLVVYCDSDRPSGIPERFSGSNSGNTATLTISRVEAGDEADYYCQVWDGNSDHVVFGGGTKLTVLG
Mean E max, Luciferase reporter gene assay: 85%
Mean EC50, Luciferase reporter gene assay: 0.789 nM

B2: 16H7 light chain variant D49F (antibody, IgG4, V domains shown)
VH: not shown
VL: SYVLTQPPSVSVAPGQTARITCGGNNIGSESVHWYQQKPGQAPVLVVYFDSDRPSGIPERFSGSNSGNTATLTISRVEAGDEADYYCQVWDGNSDHVVFGGGTKLTVLG
Mean E max, Luciferase reporter gene assay: 94%
Mean EC50, Luciferase reporter gene assay: 0.256 nM

B3: 16H7 light chain variant D49V (antibody, IgG4, V domains shown)
VH: not shown
VL: SYVLTQPPSVSVAPGQTARITCGGNNIGSESVHWYQQKPGQAPVLVVYVDSDRPSGIPERFSGSNSGNTATLTISRVEAGDEADYYCQVWDGNSDHVVFGGGTKLTVLG
Mean E max, Luciferase reporter gene assay: 97%
Mean EC50, Luciferase reporter gene assay: 0.206 nM

B4: 16H7 light chain variant D49I (antibody, IgG4, V domains shown)
VH: not shown
VL: SYVLTQPPSVSVAPGQTARITCGGNNIGSESVHWYQQKPGQAPVLVVYIDSDRPSGIPERFSGSNSGNTATLTISRVEAGDEADYYCQVWDGNSDHVVFGGGTKLTVLG
Mean E max, Luciferase reporter gene assay: 83%
Mean EC50, Luciferase reporter gene assay: 0.149 nM

B5: 16H7 light chain variant D49K (antibody, IgG4, V domains shown)
VH: not shown
VL: SYVLTQPPSVSVAPGQTARITCGGNNIGSESVHWYQQKPGQAPVLVVYKDSDRPSGIPERFSGSNSGNTATLTISRVEAGDEADYYCQVWDGNSDHVVFGGGTKLTVLG
Mean E max, Luciferase reporter gene assay: 83%
Mean EC50, Luciferase reporter gene assay: 1.34 nM

B6: 16H7 light chain variant D49P (antibody, IgG4, V domains shown)
VH: not shown
VL: SYVLTQPPSVSVAPGQTARITCGGNNIGSESVHWYQQKPGQAPVLVVYPDSDRPSGIPERFSGSNSGNTATLTISRVEAGDEADYYCQVWDGNSDHVVFGGGTKLTVLG
Mean E max, Luciferase reporter gene assay: 96%
Mean EC50, Luciferase reporter gene assay: 0.195 nM

B7: 16H7 light chain variant D49R (antibody, IgG4, V domains shown)
VH: not shown
VL: SYVLTQPPSVSVAPGQTARITCGGNNIGSESVHWYQQKPGQAPVLVVYRDSDRPSGIPERFSGSNSGNTATLTISRVEAGDEADYYCQVWDGNSDHVVFGGGTKLTVLG
Mean E max, Luciferase reporter gene assay: 72%
Mean EC50, Luciferase reporter gene assay: 1.86 nM

B8: 16H7 light chain variant H96P (antibody, IgG4, V domains shown)
VH: not shown
VL: SYVLTQPPSVSVAPGQTARITCGGNNIGSESVHWYQQKPGQAPVLVVYDDSDRPSGIPERFSGSNSGNTATLTISRVEAGDEADYYCQVWDGNSDPVVFGGGTKLTVLG
Mean E max, Luciferase reporter gene assay: 50%

B9: 16H7 light chain variant D49L (antibody, IgG4, V domains shown)
VH: not shown
VL: SYVLTQPPSVSVAPGQTARITCGGNNIGSESVHWYQQKPGQAPVLVVYLDSDRPSGIPERFSGSNSGNTATLTISRVEAGDEADYYCQVWDGNSDHVVFGGGTKLTVLG
Mean E max, Luciferase reporter gene assay: 92%
Mean EC50, Luciferase reporter gene assay: 0.529 nM

B10: 16H7 light chain variant D49M (antibody, IgG4, V domains shown)
VH: not shown
VL: SYVLTQPPSVSVAPGQTARITCGGNNIGSESVHWYQQKPGQAPVLVVYMDSDRPSGIPERFSGSNSGNTATLTISRVEAGDEADYYCQVWDGNSDHVVFGGGTKLTVLG
Mean E max, Luciferase reporter gene assay: 85%
Mean EC50, Luciferase reporter gene assay: 0.224 nM

B11: 16H7 light chain variant V97A (antibody, IgG4, V domains shown)
VH: not shown
VL: SYVLTQPPSVSVAPGQTARITCGGNNIGSESVHWYQQKPGQAPVLVVYDDSDRPSGIPERFSGSNSGNTATLTISRVEAGDEADYYCQVWDGNSDHAVFGGGTKLTVLG
Mean E max, Luciferase reporter gene assay: 68%
Mean EC50, Luciferase reporter gene assay: 2.09 nM
